Experimental findings from patent publication US20240279281A1, “Peptide Inhibitors of Interleukin-23 Receptor” (Janssen Pharmaceutica NV, priority 2023, published 2024) are described below.

The test addresses T1, interleukin-23 receptor (IL-23R), Q5VWK5.
T1 chain: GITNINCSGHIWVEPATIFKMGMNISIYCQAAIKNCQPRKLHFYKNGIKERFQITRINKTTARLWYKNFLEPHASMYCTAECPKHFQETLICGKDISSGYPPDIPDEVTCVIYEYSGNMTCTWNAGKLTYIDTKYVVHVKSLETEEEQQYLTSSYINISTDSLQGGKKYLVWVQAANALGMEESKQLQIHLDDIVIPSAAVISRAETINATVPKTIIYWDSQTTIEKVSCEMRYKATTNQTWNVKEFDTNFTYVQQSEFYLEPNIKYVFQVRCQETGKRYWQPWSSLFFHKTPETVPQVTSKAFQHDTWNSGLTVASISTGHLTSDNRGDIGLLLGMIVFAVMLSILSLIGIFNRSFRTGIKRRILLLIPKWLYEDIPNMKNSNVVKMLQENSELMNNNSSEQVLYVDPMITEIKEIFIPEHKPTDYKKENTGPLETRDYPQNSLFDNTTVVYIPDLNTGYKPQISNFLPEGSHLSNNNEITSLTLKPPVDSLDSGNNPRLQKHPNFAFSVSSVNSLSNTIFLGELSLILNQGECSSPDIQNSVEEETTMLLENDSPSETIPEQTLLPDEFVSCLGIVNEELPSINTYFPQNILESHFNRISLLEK
Description: cell-based or functional assay.

Starred links: 1 amine or outer side, 2 acyl side, 3 side chain; linkers in the order of their positions; H or OH if unused. Positions of bridges follow the written chain, without caps; N, C: chain ends. Non-standard residues stand in square brackets, D forms with d. No end group written: not given here. X3 = 4‑(2-(4-(2-amino-2-carboxyethyl)phenoxy)ethyl)‑4‑methylmorpholin‑4‑ium, C[N+]1(CCOc2ccc(CC(N[*:1])C(=O)[*:2])cc2)CCOCC1; X6 = 2‑amino‑3‑(4-carbamoyl-1H-imidazol-1-yl)propanoic acid, NC(=O)c1cn(CC(N[*:1])C(=O)[*:2])cn1; 2Nal(6-OH) = N[C@@H](Cc1ccc2cc(O)ccc2c1)C(=O)O; Trp(7-Me) = Cc1cccc2c(C[C@H](N)C(=O)O)c[nH]c12; AEF = NCCOc1ccc(C[C@H](N)C(=O)O)cc1; 3Pal = N[C@@H](Cc1cccnc1)C(=O)O; Pen = CC(C)(S)[C@H](N)C(=O)O; lipid = not defined here; Thp = NC1(C(=O)O)CCOCC1; Sar = CNCC(=O)O

[Pen]NT[Trp(7-Me)]K(Ac)[Pen][2‑amino‑3‑(4-(2-aminoethoxy)phenyl)propanoic acid][2‑amino‑3‑(6-hydroxynaphthalen-2-yl)propanoic acid][Thp]K(Ac)N[3Pal][Sar]K(lipid) (disulfide 1-6 (inferred); ends not checked; also: K14: lipidated lysine) [SEQ ID NO: 277] registered a PBMC pSTAT3 IC50 of less than 1 nM.

B1: SEQ ID NO: 425 (peptide)
peptide: R[Pen]KT[Trp(7-Me)]K(Ac)[Pen][AEF][2Nal(6-OH)][Thp]EN[3Pal][Sar]
modifications: not fully specified (residue 3, bridges); ends and bridges not checked; also: K3: lipidated lysine
With B1, the PBMC pSTAT3 IC50 was less than 1 nM.

On to [Pen]NT[Trp(7-Me)]K(Ac)[Pen][5‑(4-(2-amino-2-carboxyethyl)phenoxy)‑N,N,N‑trimethylpentan‑1‑aminium][2Nal(6-OH)][Thp]EN[3Pal][Sar] (not fully specified (bridges); ends and bridges not checked) [SEQ ID NO: 75], for which the IL23R Reporter Assay IC50 is less than 10 nM.

B2: SEQ ID NO: 81 (peptide)
peptide: [Pen]NT[Trp(7-Me)]K[Pen][2‑amino‑3‑(4-(2-aminoethoxy)phenyl)propanoic acid][2‑amino‑3‑(6-hydroxynaphthalen-2-yl)propanoic acid][Thp]K(Ac)N[3Pal][Sar]
modifications: not fully specified (bridges); ends and bridges not checked; also: K5: lipidated lysine, lipid not given here
Molecule B2 registered an IL23R Reporter Assay IC50 of less than 10 nM.

B3: SEQ ID NO: 395 (peptide)
peptide: K[Pen]ET[Trp(7-Me)]K(Ac)[Pen][2‑amino‑3‑(4-(2-aminoethoxy)phenyl)propanoic acid][2‑amino‑3‑(6-hydroxynaphthalen-2-yl)propanoic acid][Thp]EN[3Pal][Sar]
modifications: not fully specified (residue 1, bridges); ends and bridges not checked; also: Lys1: lipidated lysine, lipid not given here
B3 returned a PBMC pSTAT3 IC50 of less than 1 nM.

B4: SEQ ID NO: 72 (peptide)
peptide: [Pen]NT[Trp(7-Me)]K(Ac)[Pen][AEF][2Nal(6-OH)][Thp]K(Ac)N[3Pal][Sar]K
modifications: not fully specified (bridges); ends and bridges not checked; also: K14: lipidated lysine, lipid not given here
In the case of B4, the IL23R Reporter Assay IC50 was less than 10 nM.

B5: SEQ ID NO: 269 (peptide)
peptide: R[Pen]NT[Trp(7-Me)]K(Ac)[Pen][2‑amino‑3‑(4-(2-aminoethoxy)phenyl)propanoic acid][2‑amino‑3‑(6-hydroxynaphthalen-2-yl)propanoic acid][Thp]EN[3Pal][Sar]K
modifications: disulfide 2-7 (inferred); not fully specified (residue 15); ends not checked; also: K15: lipidated lysine
In the case of B5, the PBMC pSTAT3 IC50 is less than 1 nM.

B6: SEQ ID NO: 268 (peptide)
peptide: K[Pen]NT[Trp(7-Me)]K(Ac)[Pen][2‑amino‑3‑(4-(2-aminoethoxy)phenyl)propanoic acid][2‑amino‑3‑(6-hydroxynaphthalen-2-yl)propanoic acid][Thp]EN[3Pal][Sar]
modifications: disulfide 2-7 (inferred); not fully specified (residue 1); ends not checked; also: K1: lipidated lysine
Take B6: the PBMC pSTAT3 IC50 is less than 1 nM.

B7: SEQ ID NO: 427 (peptide)
peptide: K[Pen]NT[Trp(7-Me)]K(Ac)[Pen][2‑amino‑3‑(4-(2-aminoethoxy)phenyl)propanoic acid][2‑amino‑3‑(6-hydroxynaphthalen-2-yl)propanoic acid][Thp]K(Ac)N[3Pal][Sar]
modifications: not fully specified (residue 1, bridges); ends and bridges not checked; also: Lys1 lipidated (lipid not given here)
Molecule B7 yielded a PBMC pSTAT3 IC50 of less than 1 nM.

In the case of R[Pen]NT[Trp(7-Me)]K(Ac)[Pen][2‑amino‑3‑(4-(2-aminoethoxy)phenyl)propanoic acid][2‑amino‑3‑(6-(3-(trifluoromethyl)-1H-pyrazol-4-yl)naphthalen-2-yl)propanoic acid][Thp]EN[Thp] (not fully specified (bridges); ends and bridges not checked) [SEQ ID NO: 434], the PBMC pSTAT3 IC50 was more than 1 nM.

B8: SEQ ID NO: 80 (peptide)
peptide: [Pen]NT[Trp(7-Me)]K(Ac)[Pen][2‑amino‑3‑(4-(2-aminoethoxy)phenyl)propanoic acid][2‑amino‑3‑(6-hydroxynaphthalen-2-yl)propanoic acid][Thp]KN[3Pal][Sar]
modifications: not fully specified (bridges); ends and bridges not checked; also: K10: lipidated lysine, lipid not given here
In the case of B8, the IL23R Reporter Assay IC50 is less than 10 nM.

B9: SEQ ID NO: 420 (peptide)
peptide: R[Pen]ET[Trp(7-Me)]K(Ac)[Pen][AEF][2Nal(6-OH)][Thp]KN[3Pal][Sar]
modifications: not fully specified (bridges); ends and bridges not checked; also: K11: lipidated lysine
Molecule B9 displayed a PBMC pSTAT3 IC50 of less than 0.1 nM.

In the case of R[Pen]NT[Trp(7-Me)]K(Ac)[Pen][N,N,N‑trimethylethanaminium][2‑amino‑3‑(6-hydroxynaphthalen-2-yl)propanoic acid][Thp]EN[3Pal][Sar] (disulfide 2-7 (inferred); not fully specified; ends not checked) [SEQ ID NO: 436], the PBMC pSTAT3 IC50 was less than 1 nM.

Take R[Pen]ET[Trp(7-Me)]K(Ac)[Pen][AEF][2Nal(6-OH)][Thp]K(Ac)N[3Pal][Sar] (not fully specified (bridges); ends and bridges not checked) [SEQ ID NO: 421]: the PBMC pSTAT3 IC50 was less than 1 nM.

Regarding R[Pen]NT[Trp(7-Me)]K(Ac)[Pen][AEF][2Nal(6-OH)][Thp]EN[X6][Sar] (not fully specified (bridges); ends and bridges not checked) [SEQ ID NO: 419], the PBMC pSTAT3 IC50 is less than 0.1 nM.

B10: SEQ ID NO: 267 (peptide)
peptide: [Pen]NT[Trp(7-Me)]K(Ac)[Pen][2‑amino‑3‑(4-(2-aminoethoxy)phenyl)propanoic acid][2‑amino‑3‑(6-hydroxynaphthalen-2-yl)propanoic acid][Thp]K(Ac)N[3Pal][Sar]K
modifications: disulfide 1-6 (inferred); not fully specified (residue 14); ends not checked; also: K14: lipidated lysine
The molecule B10 showed a PBMC pSTAT3 IC50 of less than 1 nM.

For the molecule [Pen]NT[Trp(7-Me)]K(Ac)[Pen][2‑amino‑3‑(4-(2-aminoethoxy)phenyl)propanoic acid][2‑amino‑3‑(6-hydroxynaphthalen-2-yl)propanoic acid][Thp]K(Ac)N[3Pal][Sar]K(lipid) (disulfide 1-6 (inferred); ends not checked; also: K14: lipidated lysine) [SEQ ID NO: 271], the PBMC pSTAT3 IC50 was less than 1 nM.

The molecule R[Pen]NT[Trp(7-Me)]K(Ac)[Pen][N,N,N‑trimethylethanaminium][2‑amino‑3‑(6-hydroxynaphthalen-2-yl)propanoic acid][Thp]EN[3Pal][Sar] (disulfide 2-7 (inferred); not fully specified; ends not checked) [SEQ ID NO: 435] yielded a PBMC pSTAT3 IC50 of less than 0.1 nM.

R[Pen]NT[Trp(7-Me)]K(Ac)[Pen][2‑amino‑3‑(4-(2-aminoethoxy)phenyl)propanoic acid][3‑(6-(1H-pyrazol-4-yl)naphthalen-2-yl)‑2‑aminopropanoic acid][Thp]EN[Thp] (not fully specified (bridges); ends and bridges not checked) [SEQ ID NO: 433]: the PBMC pSTAT3 IC50 is more than 1 nM.

B11: SEQ ID NO: 423 (peptide)
peptide: K[Pen]ET[Trp(7-Me)]K(Ac)[Pen][AEF][2Nal(6-OH)][Thp]K(Ac)N[3Pal][Sar]
modifications: not fully specified (bridges); ends and bridges not checked; also: lipidated Lys1, lipid not given here
For the molecule B11, the PBMC pSTAT3 IC50 was less than 1 nM.

Regarding R[Pen]NTWK(Ac)[Pen][X3][2Nal(6-OH)][Thp]EN[3Pal][Sar] (not fully specified (bridges); ends and bridges not checked) [SEQ ID NO: 73], the IL23R Reporter Assay IC50 was less than 10 nM.
